Kd data for seven molecules are collected here from PMC5691656 (Viruses, 2017).

No end group written: not given here.

One experiment concerns the target CNP058 (Canarypox virus, UniProt Q6VZT9). As to the kind of experiment: biochemical. The class given is binding.
A further experiment has as its target Noxa BH3 (Homo sapiens) (UniProt Q13794). As to the kind of experiment: ITC. As to conditions: cited from earlier work.
The target of experiment [1] is T1, Canarypox virus CNP058 lacking the C-terminal transmembrane domain (residues 1–143) (canarypox virus, UniProt Q6VZT9 1-143).
T1 sequence: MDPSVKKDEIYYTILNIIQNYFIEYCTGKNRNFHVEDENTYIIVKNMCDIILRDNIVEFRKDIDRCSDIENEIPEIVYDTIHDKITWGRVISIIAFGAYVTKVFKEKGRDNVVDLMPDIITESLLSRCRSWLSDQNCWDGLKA
As to the kind of experiment: ITC. The conditions noted are these: both partners purified.

Sequence of Noxa BH3 (Homo sapiens) (Q13794 18-43): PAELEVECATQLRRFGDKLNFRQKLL

By Kd is commonly meant the free concentration of one partner at which half of the binding sites on the other are occupied at equilibrium, for simple one-to-one binding. For “PEVNEAIVRTIAAQLAEIGDQLDKQIKAKVVNDL [GG_Bid]”, at CNP058, the Kd came to 50 nM. Turning to FPV039 (from UniProt Q9J5G4), the Kd with Noxa BH3 (Homo sapiens) is 28 nM.

B1: Homo sapiens Puma BH3 domain peptide (residues 130-155) (peptide)
peptide: EEQWAREIGAQLRRMADDLNAQYERR
For the molecule B1, the Kd in experiment [1] is 2480 nM.

B2: Gallus gallus Noxa BH3 domain peptide (peptide)
peptide: ERDAVAECALELRRIGDKADLQQKVL
notes: Noxa, Gallus gallus, BH3 domain peptide; source: synthetic peptide (Mimotopes)
B2 showed a Kd in experiment [1] of 3280 nM.

B3: Gallus gallus Bid BH3 domain peptide (residues 77-110) (peptide)
peptide: PEVNEAIVRTIAAQLAEIGDQLDKQIKAKVVNDL
In experiment [1], B3 showed a dissociation constant (Kd) of 50 nM.

B4: Gallus gallus Bmf BH3 domain peptide (residues 135-160) (peptide)
peptide: EARTEVQIARKLQCIADQFHRLHIQR
Molecule B4 had a dissociation constant Kd in experiment [1] of 294 nM.

B5: Homo sapiens Bax BH3 domain peptide (residues 50-77) (peptide)
peptide: VPQDASTKKLSECLKRIGDELDSNMELQ
Consider B5, for which the equilibrium dissociation constant (Kd) in experiment [1] is 326 nM.
